Literature values, collected in publication PMC5650668.
Where two headings read alike, the source gives them in different places.

How the values were obtained:
[1] = molecular target: ω-agatoxin IVA (Agelenopsis aperta) (UniProt P30288)
[2] = molecular target: ω-agatoxin IVA (Agelenopsis aperta) (UniProt P30288); remark: listed apart in the source

Sequence of UniProt P30288 (P30288 whole entry): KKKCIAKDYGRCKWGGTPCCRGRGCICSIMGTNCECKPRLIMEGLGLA

Row | Substance | Kd [1] [nM] | Kd [2] [nM]
1 | Cav2.1 (P current component) (from UniProt P54282) | 2 | –
2 | Cav2.1 (Q current component) (from UniProt P54282) | – | > 100
